Measured values reported in patent US20120093805A1.

Target: sugar chain-deficient cynomolgus CD27 (C-terminal His tag) expressed on Lec8 cells (cynomolgus)
Assay: flow cytometry (FCM) on cynomolgus CD27/Lec8 cells (Example 11(5)) [A]

B1: anti-sugar chain-deficient CD27 chimeric antibody chimeric KM4030 (antibody, human IgG1, V domains shown)
VH: EVQLVESGGGLVQPGRSLKLSCVASGFTFNNYWMTWIRQAPGKGLEWIASITNSGGSTYYPDSVKGRFTISRDNAKGTLYLQMNSLRSEDTATYYCTRDVNTYYGYNALFDYWGQGVMVTVSS
VL: DIQMTQSPSVLSASVGDRVTLNCKASQNINEYLNWYQQKLGEAPKLLIYNTNNLQTGIPSRFSGSGSGTDFTLTISSLQPEDFAAYFCFQHNSWPYTFGAGTKLELK
- EC50 (read off the curve): 0.2 µg/mL
